In patent US20140162289A1:

Biological target: ADRB2-luc234R233 (β2 adrenergic receptor fused at its C terminus to permuted firefly luciferase with R at the X position of the TEV cleavage site) (firefly) (UniProt P07550)
Experiment: cell-based or functional assay

Sequence of Human β arrestin 2-TEV fusion (tobacco etch virus protease A fused to the C terminus of β arrestin 2) (P32121 1-409, tags or fused parts left off): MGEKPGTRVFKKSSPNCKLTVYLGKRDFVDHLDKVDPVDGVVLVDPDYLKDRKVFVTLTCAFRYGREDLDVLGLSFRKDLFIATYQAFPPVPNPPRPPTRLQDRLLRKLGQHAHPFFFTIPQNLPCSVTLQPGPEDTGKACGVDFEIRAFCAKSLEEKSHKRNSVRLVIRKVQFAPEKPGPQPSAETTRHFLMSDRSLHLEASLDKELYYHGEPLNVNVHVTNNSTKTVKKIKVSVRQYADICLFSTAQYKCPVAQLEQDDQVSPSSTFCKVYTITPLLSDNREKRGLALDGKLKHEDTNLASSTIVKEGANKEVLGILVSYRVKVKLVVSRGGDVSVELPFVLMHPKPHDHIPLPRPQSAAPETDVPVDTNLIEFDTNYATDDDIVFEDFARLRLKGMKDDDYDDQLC

Human β arrestin 2-TEV fusion (tobacco etch virus protease A fused to the C terminus of β arrestin 2) (from UniProt P32121 1-409; P04517 2040-2279)
> 3 fold: relative luminescence (reconstituted permuted luciferase) in co-transfected CHO-K1 cells, with or without 10 µM isoproterenol, 2 hours | relative luminescence in co-transfected CHO-K1 cells, with or without 10 µM isoproterenol, 2 hours | relative luminescence units in cotransfected CHO-K1 cells, with or without 10 µM ADRB2 agonist, 2 hours
